In PMC7819943, “Rice protein-binding microarrays: a tool to detect cis-acting elements near promoter regions in rice”:

Tests used:
[1] = biological target: T1, OsSMF1 (Oryza sativa, UniProt Q6ZLB0 1-436); assay: EMSA; EMSA: 5 ug protein, 40 fmol FAM-dsDNA, 1 ug poly(dI-dC), 1X binding buffer (Pierce), 2.5% glycerol, 0.05% NP-40, 20 ul, 1 h room temperature; 6% acrylamide gel; settings: protein: recombinant; tags: N-terminal polyhistidine and DsRed monomer fusion (pET32a); chain copies: 2; label: 5' FAM; blunt
T1 sequence: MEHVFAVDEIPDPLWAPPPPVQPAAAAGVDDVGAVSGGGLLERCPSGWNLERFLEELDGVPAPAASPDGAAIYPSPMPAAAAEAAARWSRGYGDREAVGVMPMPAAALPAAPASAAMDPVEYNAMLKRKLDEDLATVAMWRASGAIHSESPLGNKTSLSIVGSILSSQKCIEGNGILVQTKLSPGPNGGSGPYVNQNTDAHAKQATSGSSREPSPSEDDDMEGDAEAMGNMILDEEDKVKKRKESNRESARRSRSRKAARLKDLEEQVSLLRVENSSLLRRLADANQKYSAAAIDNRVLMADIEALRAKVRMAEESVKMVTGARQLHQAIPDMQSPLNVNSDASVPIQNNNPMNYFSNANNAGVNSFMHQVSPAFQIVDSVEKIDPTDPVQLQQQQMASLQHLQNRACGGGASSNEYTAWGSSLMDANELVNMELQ

[2] = biological target: OsWRKY34 (Oryza sativa, UniProt Q0JBA9 1-250); assay: as above; settings: protein: recombinant; tags: N-terminal polyhistidine and DsRed monomer fusion (pET32a); label: 5' FAM; blunt
Chain of OsWRKY34 (Q0JBA9 entry or part of it): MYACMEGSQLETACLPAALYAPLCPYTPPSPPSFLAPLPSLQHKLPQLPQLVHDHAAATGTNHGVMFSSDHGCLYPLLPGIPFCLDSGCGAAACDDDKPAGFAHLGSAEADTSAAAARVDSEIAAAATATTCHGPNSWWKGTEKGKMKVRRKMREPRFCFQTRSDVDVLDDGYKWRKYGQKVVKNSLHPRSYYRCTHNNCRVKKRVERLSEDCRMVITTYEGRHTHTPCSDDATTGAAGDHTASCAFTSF

B1: Os01g0393100_8 (ONAC026 promoter probe) (dsDNA)
DNA 1: CTGGAATCTGAGGGGAACCACGTCACGTACACAAGTATAT
DNA 2: ATATACTTGTGTACGTGACGTGGTTCCCCTCAGATTCCAG
binding result [1]: binds

B2: Os05g0415400_39 (ONAC024 promoter probe) (dsDNA)
DNA 1: GATAATGAGTCAGTCCTCTTGTCGATACTCCGCCGGTATG
DNA 2: CATACCGGCGGAGTATCGACAAGAGGACTGACTCATTATC
binding result [1]: binds

B3: Os01g0311500_18 (dsDNA)
DNA 1: TTGACGCCGTTGACTTTTTAGTACATGTTTGACCATTCGT
DNA 2: ACGAATGGTCAAACATGTACTAAAAAGTCAACGGCGTCAA
binding result [2]: binds
